From paper PMC9976466, “Insights into the structure-function relationship of the NorQ/NorD chaperones from Paracoccus denitrificans reveal shared principles of interacting MoxR AAA+/VWA domain proteins” (BMC Biology, 2023)
Values joined by “and” are separate entries in the source; they are usually repeats but may differ in a detail not shown here. Equal entries are not always repeated.

What was measured:
NorQ = target: T1, NorQ (Paracoccus denitrificans, UniProt Q51664, E109Q); experiment: Blue Native PAGE, ATP-induced shift to hexamer; format: binding; settings: 2 mM ATP, 20 mM MgCl2; Walker B variant, ATPase activity lost
T1 construct: full length, N-terminal 6-His tag (pET-hQ), expressed in E. coli BL21(DE3); ~30 kDa monomer, several oligomeric states up to hexamer

[1] = target: the molecule itself; experiment: native gel or EMSA; BN-PAGE of purified NorQ^WBD (~10 μg per lane) after addition of ATP
[2] = target: 6-His-tagged NorD (Paracoccus denitrificans); experiment: as above
[3] = target: the molecule itself; experiment: native gel or EMSA + SEC; BN-PAGE (NativePAGE 4-16% Bis-Tris, 4 °C) of purified NorQ (14 μg) and NorQ^WB (18 μg), with 2 mM ATP and 20 mM MgCl2 in Fig. 2b; SEC on Superdex 200 in 20 mM TRIS/HCl pH 8, 300 mM NaCl, 10% glycerol

Nc1ncnc2c1ncn2[C@@H]1O[C@H](COP(=O)(O)OP(=O)(O)OP(=O)(O)O)[C@@H](O)[C@H]1O [ATP]
Blue Native PAGE, ATP-induced shift to hexamer (NorQ): clear shifting of the oligomerization state to the hexamer (Fig. 2b) for the NorQ^WB

B1: untagged NorQ^WB (E109Q), co-expressed with 6-His-tagged NorD (enzyme, Paracoccus denitrificans, UniProt Q51664 1-270, looked up)
chain: MNAHVKTQGNGAVDAPFYLPQGDEVAVFEAAAANDLPVLLKGPTGCGKTRFVAHMAARLGRPLYTVACHDDLSAADLIGRYLLKGGETVWTDGPLTRAVREGAICYLDQVVEARKDVTVVLHPLTDDRRILPIDRTGEEIEAAPGFMLVASYNPGYQNILKTLKPSTRQRFVAMEFDFPEPAREVEIVARESGLDRDRTLGLVRLAGKIRGLKGQDLEEGVSTRLVVYAASLTRRGMNLDRAIEAAMIEPLTDDAEVKRGLRDLAAAIFG
notes: NorQ of Paracoccus denitrificans, Uniprot Q51663, Walker B variant; the norQ gene was cloned into a pET21a backbone with the T7 RBS; Hexameric within the NorQ^WBD complex (BN-PAGE, cryo-EM); trimer to hexamer after addition of ATP; also called NorQ^WB (in NorQ^WBD; Q^WBD)
stoichiometry N [1]: 3
stoichiometry N [2]: 3

B2: wildtype 6-His-tagged NorQ (enzyme, Paracoccus denitrificans, UniProt Q51664 1-270, looked up)
chain: MNAHVKTQGNGAVDAPFYLPQGDEVAVFEAAAANDLPVLLKGPTGCGKTRFVAHMAARLGRPLYTVACHDDLSAADLIGRYLLKGGETVWTDGPLTRAVREGAICYLDEVVEARKDVTVVLHPLTDDRRILPIDRTGEEIEAAPGFMLVASYNPGYQNILKTLKPSTRQRFVAMEFDFPEPAREVEIVARESGLDRDRTLGLVRLAGKIRGLKGQDLEEGVSTRLVVYAASLTRRGMNLDRAIEAAMIEPLTDDAEVKRGLRDLAAAIFG
notes: NorQ, MoxR-class AAA+ ATPase of Paracoccus denitrificans, Uniprot Q51663; the norQ gene was cloned into a pET21a backbone; about 30 kDa; Expressed without NorD; Forms several oligomeric states from monomer to hexamer; source: dialysis
stoichiometry N [3]: 6 and 3 and 4 and 5
